Assay [1] addresses T1, recombinant human mature Factor D (human, UniProt P00746 26-253).
T1 construct: also called mature CFD; hCFD
The assay is described as follows: ELISA: antibody titrated 3-fold from 3 ug/ml on plate coated with 1 ug/ml recombinant human mature Factor D; HRP anti-mouse, rat or human secondary; OD450. (In general: An ELISA detects its analyte on a solid surface through an enzyme-linked reagent.)

Assay [2] has as its target T2, recombinant human Pro-Factor D (human, UniProt P00746 20-253).
T2 construct: also used for the endogenous pro-Factor D detected in 3MC patient serum; also called pro CFD; hPro-CFD
The assay is described as follows: ELISA: antibody titrated 3-fold from 3 ug/ml on plate coated with 1 ug/ml recombinant human pro-Factor D; HRP anti-mouse, rat or human secondary; OD450.

In assay [3] the target is T3, recombinant human mature Factor D-His (human, UniProt P00746 26-253).
T3 construct: also called recombinant human mature CFD-His; not shown: His tag
Kind of assay: ELISA: antibody titrated from 3 ug/ml on 1 ug/ml plate-immobilized His-tagged Factor D; labeled goat anti-mouse IgG Fc; OD450.

The target in assay [4] is T4, recombinant human Pro-Factor D-His (human, UniProt P00746 20-253).
T4 construct: also called recombinant human Pro-CFD-His; not shown: His tag
The assay is described as above.

The target in assay [5] is T2, recombinant human Pro-Factor D. The assay is described as follows: sandwich ELISA: coat 21H1 (human IgG4) 1 ug/ml, recombinant human pro-Factor D spiked into diluent and titrated, detection biotin goat polyclonal BAF1824 and HRP-streptavidin; OD450.
Protocol: Controls of no additional Factor D in sera were treated similarly (unspiked). Assay wells were incubated for 1 hour at room temperature then washed three times with PBST. […] After incubation and washing, HRP-tagged Streptavidin was added, incubated, and washed, followed by TMB substrate.
Assay [6] addresses T3, recombinant human mature Factor D-His. Kind of assay: ELISA: antibody titrated from 3 ug/ml on 1 ug/ml plate-immobilized His-tagged Factor D; labeled goat anti-mouse IgG Fc; OD450. This is another data set of the same source.
Protocol: (§1) The candidate antibodies were titrated starting at 3 μg/mL antibody binding to 1 μg/mL plate-immobilized recombinant human mature Factor D-His or recombinant human Pro-Factor D-His proteins. Bound antibodies were detected by a labeled goat polyclonal antibody specific for mouse IgG Fc (Jackson ImmunoResearch).
In assay [7] the target is T4, recombinant human Pro-Factor D-His. The assay is described as above. The source holds these as a separate data set.
Protocol: as §1
Assay [8] addresses T2, recombinant human Pro-Factor D. The assay is described as follows: capture ELISA: recombinant Factor D captured by plate-bound goat polyclonal AF1824; hybridoma supernatant diluted two-fold; OD450.
Protocol: Hybridoma supernatants were first screened for binding to immobilized recombinant human mature Factor D-His. […] ELISA plates were coated with polyclonal anti-human factor D antibody AF1824 (R&D Systems). Hybridoma supernatants were diluted two-fold in PBS, 0.05% Tween 20 (PBST). Supernatant from NS-1 myeloma cell line (NS-1 sup) was included as a matrix control to determine the level of assay background.
The target in assay [9] is T5, recombinant human mature Factor D, Strep tagged (human, UniProt P00746 26-253).
T5 construct: also called recombinant human mature CFD-Strep tagged; recombinant human mature Factor D-Streptavidin; not shown: Strep tag
The assay is described as follows: ELISA with hybridoma supernatant on immobilized antigen.

Residue numbers refer to the chain shown, from its start. In names and notes the source's numbering stands. Read-outs that look alike come from different tables or passages of the source.

B1: 18F5, purified recombinant, human IgG4 (antibody, V domains shown)
VH: EVKLEESGGGLVQPGGSMKLSCVASGFTFGNYWMSWVRQSPEKGLEWVAEIRLKSDNYATHYAESVKGKFTISRDDSKSRLYLQMNSLRGEDTGLYYCTNAWFASWGQGTLVTVSA
VL: DIVMSQSPSSLAVSVGEKVTMSCMSSQSLLYSKDQKNYLAWYQQKPGQSPKLLIYWASTRESGVPDRFTGSGSGTDFTLTISSVKAEDLAVYYCLQYYTYPYTFGGGTKLEIKR
notes: Mouse variable regions on human IgG4 (S228P) and human kappa constant regions
As a reminder, the EC50 (read off the curve) is the concentration at which the effect is half-maximal. As to B1, the binding result in [1] is “no binding (tested: 3 ug/ml)”. In [2], the “EC50 (read off the curve)” value was approximately 0.03 µg/mL.

B2: 2A4, purified recombinant, human IgG4 (antibody, V domains shown)
VH: B1 VH with G30S, N31T, A63T, G90V, L95I, S105Y
VL: B1 VL with V19F, M24K, K33R, K45Q, A86T, T99S
notes: as for B1
Regarding B2, the binding result in assay [1] is recorded as “no binding (tested: 3 ug/ml)”. For the same molecule, the “EC50 (read off the curve)” value in assay [2] was approximately 0.03 µg/mL.

B3: 12H10, recombinant purified, mouse IgG2a Fc (antibody)
heavy: EVQLVESGGGLVQPKGSLKLSCAASGFSFNTYAMNWVRQAPGKGLEWVARIRSKSNNYATYYADSVKDRFTISRDDSESMLYLQMNNLKTEDTAMYYCVRHGYYWYFDVWGTGTTVTVSSAKTTAPSVYPLAPVCGDTTGSSVTLGCLVKGYFPEPVTLTWNSGSLSSGVHTFPAVLQSDLYTLSSSVTVTSSTWPSQSITCNVAHPASSTKVDKKIEPRGPTIKPCPPCKCPAPNLLGGPSVFIFPPKIKDVLMISLSPIVTCVVVDVSEDDPDVQISWFVNNVEVHTAQTQTHREDYNSTLRVVSALPIQHQDWMSGKEFKCKVNNKDLPAPIERTISKPKGSVRAPQVYVLPPPEEEMTKKQVTLTCMVTDFMPEDIYVEWTNNGKTELNYKNTEPVLDSDGSYFMYSKLRVEKKNWVERNSYSCSVVHEGLHNHHTTKSFSRTPGK
light: DVLMTQTPLSLPVSLGDQASISCRSSQSIVHSDGNTYLEWYLQKPGQSPKLLIYRVSNRFSGVPDRFSGSGSGTDFTLKISRVEAEDLGVYYCFQGSHVPYTFGGGTKLEIKRADAAPTVSIFPPSSEQLTSGGASVVCFLNNFYPKDINVKWKIDGSERQNGVLNSWTDQDSKDSTYSMSSTLTLTKDEYERHNSYTCEATHKTSTSPIVKSFNRNEC
notes: Mouse IgG2a and mouse kappa constant regions
In the case of B3, the results for the “EC50 (read off the curve)” value in [3] and in assay [4] were approximately 0.04 µg/mL and approximately 0.02 µg/mL, respectively.

B4: 21H1, purified recombinant, human IgG4 Fc (antibody, V domains shown)
VH: DVQLQESGPGLVKPSQSLSLTCTVTGYSITSDYAWNWIRQFPGNKLEWMGYISYSGSTGYSPSLKSRISITRDTSKNQFFLHLNSVTTGDTATYYCARNGAMDYWGQGISVTVSS
VL: DIVLTQSPASLAVSLGQRATISCKASQSVDYDGDSYMNWYQQKPGQPPKLLIYDASTLESGIPARFSGSGSGTDFTLNIHPVEEEDAATYYCQQNYEAPWTFGGGTKLEIKR
notes: Mouse variable regions on human IgG4 (S228P) and human kappa constant regions; also called mAb 21H1; anti-pro Factor D-specific antibody 21H1
With B4, the binding result in assay [1] is on record as “no binding (tested: 3 ug/ml)”. For the same molecule, the half-maximal effective concentration (EC50 (read off the curve)) in [5] was approximately 0.004 µg/mL; in assay [2], approximately 0.02 µg/mL.

B5: 13A10, purified recombinant, human IgG4 (antibody, V domains shown)
VH: B4 VH with S55I, S57G, T58I, S61N, Y104F
VL: B4 VL with T57N, N95S, Y96N
notes: as for B1
Turning to B5, in assay [1], the binding result is on record as “no binding (tested: 3 ug/ml)”. In addition, the concentration giving a half-maximal response (EC50 (read off the curve)) in assay [2] is approximately 0.02 µg/mL.

B6: 3C5, recombinant purified, mouse IgG2a Fc (antibody)
heavy: EVKLVESGGGLVQPGGSLKLSCATSGFTFSDYGMAWVRQAPGKGPEWVAFISNLAYSFYYVDIVMGRFTISRENAKNTLYLEMSSLRSEDTAMYYCARVGLYGNFFMDYWGQGTSVTVSSAKTTAPSVYPLAPVCGDTTGSSVTLGCLVKGYFPEPVTLTWNSGSLSSGVHTFPAVLQSDLYTLSSSVTVTSSTWPSQSITCNVAHPASSTKVDKKIEPRGPTIKPCPPCKCPAPNLLGGPSVFIFPPKIKDVLMISLSPIVTCVVVDVSEDDPDVQISWFVNNVEVHTAQTQTHREDYNSTLRVVSALPIQHQDWMSGKEFKCKVNNKDLPAPIERTISKPKGSVRAPQVYVLPPPEEEMTKKQVTLTCMVTDFMPEDIYVEWTNNGKTELNYKNTEPVLDSDGSYFMYSKLRVEKKNWVERNSYSCSVVHEGLHNHHTTKSFSRTPGK
light: DIQMNQSPSSLSASLGDTITITCHASQNINVWLSWYQQKPGNIPELLIYKASNLHTGVPSRFSGNRSGTSFTLTISSLQPEDIGTYFCQQGQSYPLTFGAGTKLELRRADAAPTVSIFPPSSEQLTSGGASVVCFLNNFYPKDINVKWKIDGSERQNGVLNSWTDQDSKDSTYSMSSTLTLTKDEYERHNSYTCEATHKTSTSPIVKSFNRNEC
notes: as for B3
In the case of B6, the concentration giving a half-maximal response (EC50 (read off the curve)) in [6] was approximately 0.06 µg/mL; in assay [7], approximately 0.04 µg/mL.

B7: 27B3, hybridoma supernatant (antibody, V domains shown)
VH: QVTLKESGPGILQSSQTLSLTCSFSGISLNISGMGVSWIRQPSGKGLEWLAHIYWDDEKHYNPSLKRRLTISKDASRNQVFFRISSVDSADTATYYCALRYYGYGSIMDYWGHGTSVTVSS
VL: DVLMTQTPLSLPVSLGDQASISCRSSQSIVHSNGNTYFEWYLQKPGQSPKLLIYKVSNRFSGVPDRFSGSGSGTDFTLKISRVEAEDLGVYYCFQGSHVPPTFGGGTKLEIKR
notes: Mouse hybridoma antibody
As to B7, the binding result in [8] was “no binding”.

B8: 11H1, hybridoma supernatant (antibody, V domains shown)
VH: EVQLVESGGGLVQPKGSLKLSCAASGFSFNTYAMNWVRQAPGKGLEWVARIRSKSNNYATHYADSVKDRFTISRDDSESMLYLQMNNLKTEDTAMYYCVRQGYYWYFDVWGTGTTVTVSS
VL: B7 VL with F38L, K55T, P101W
notes: Mouse hybridoma antibody
As for B8, in assay [9], the binding result was “binds”.

B9: 7H2, hybridoma supernatant (antibody, V domains shown)
VH: B8 VH with L4V, Q13R, H61Y, Y82S
VL: B7 VL with F38L, K55T, S68R, P101W
notes: Mouse hybridoma antibody
In the case of B9, the binding result in assay [9] was “binds”.
